Measured values from the supplement of paper PMC9233669.
Variants at the floor of the assay were thinned out.

What was measured:
biotinyl-Phe-oxazolone = assay: self-aminoacylation, catalytic enhancement (BFO) (fold over background); higher = more active; k-Seq, kA / k0A0; sequences stand for … in GGGAAUGGAUCCACAUCUACGAAUUC…UUCACUGCAGACUUGACGAAGCUG
Procedure, shortened: (§1)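 Mutagenized RNA pools with a 21-nt variable region (0.43 μM) were reacted with each biotinyl-aminoacyl-oxazolone at 2–1250 μM for 90 minutes at room temperature, in 50 μL HEPES/NaCl/KCl/MgCl2/CaCl2 buffer containing 5% acetonitrile at pH 6.9–7.0. RNA captured on streptavidin was quantified by triplicate qPCR and by Illumina sequencing. The fraction reacted for each sequence was fit to a pseudo-first-order model with bootstrapping, and catalytic enhancement is the median kA divided by the uncatalyzed rate, taken as the low-activity peak of a bimodal Gaussian fit.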

biotinyl-Ile-oxazolone = assay: self-aminoacylation, catalytic enhancement (BIO) (fold over background); higher = more active; k-Seq, kA / k0A0; sequences stand for … in GGGAAUGGAUCCACAUCUACGAAUUC…UUCACUGCAGACUUGACGAAGCUG
Procedure, shortened: as §1

biotinyl-Met-oxazolone = assay: self-aminoacylation, catalytic enhancement (BMO) (fold over background); higher = more active; k-Seq, kA / k0A0; sequences stand for … in GGGAAUGGAUCCACAUCUACGAAUUC…UUCACUGCAGACUUGACGAAGCUG
Procedure, shortened: as §1

biotinyl-Val-oxazolone = assay: self-aminoacylation, catalytic enhancement (BVO) (fold over background); higher = more active; k-Seq, kA / k0A0; sequences stand for … in GGGAAUGGAUCCACAUCUACGAAUUC…UUCACUGCAGACUUGACGAAGCUG
Procedure, shortened: as §1

biotinyl-Leu-oxazolone = assay: self-aminoacylation, catalytic enhancement (BLO) (fold over background); higher = more active; k-Seq, kA / k0A0; sequences stand for … in GGGAAUGGAUCCACAUCUACGAAUUC…UUCACUGCAGACUUGACGAAGCUG
Procedure, shortened: as §1

biotinyl-Trp-oxazolone = assay: self-aminoacylation, catalytic enhancement (BWO) (fold over background); higher = more active; k-Seq, kA / k0A0; sequences stand for … in GGGAAUGGAUCCACAUCUACGAAUUC…UUCACUGCAGACUUGACGAAGCUG
Procedure, shortened: as §1

Sequence	self-aminoacylation (biotinyl-Phe-oxazolone)	self-aminoacylation (biotinyl-Ile-oxazolone)	self-aminoacylation (biotinyl-Met-oxazolone)	self-aminoacylation (biotinyl-Val-oxazolone)	self-aminoacylation (biotinyl-Leu-oxazolone)	self-aminoacylation (biotinyl-Trp-oxazolone)
AAGCUUGCUAAUAGUCGUAAG [Fam3.1 aminoacylation ribozyme variant]	8.49	1.26	1.12	1.48	0.843	2.69
AAGCUUGCUAAUUGUCGCAAG [Fam3.1 aminoacylation ribozyme variant]	2.23	1.96	2.38	1.57	2.25	1.99
AAGCUUGCUAGUAGUCGCAAG [Fam3.1 aminoacylation ribozyme variant]	2.3	1.48	1.89	1.33	1.43	0.908
AAGCUUGCUCAUAGUCGCAAG [Fam3.1 aminoacylation ribozyme variant]	2.34	1.99	2.05	1.99	1.52	1.59
AAGGGUGCUAAUAGUCGCAAG [Fam3.1 aminoacylation ribozyme variant]	6.2	1.72	1.74	1.36	1.5	2.93
AAGGUUGCGAAUAGUCGCAAG [Fam3.1 aminoacylation ribozyme variant]	6.53	1.64	1.37	1.03	1.2	0.982
AAGGUUGCUAAGAGUCGCAAG [Fam3.1 aminoacylation ribozyme variant]	1.9	1.17	0.884	1.03	1.1	1.57
AAGGUUGCUAAUAGCCGCAAG [Fam3.1 aminoacylation ribozyme variant]	1.49	1.57	1.06	1.28	1.31	1.41
AAGGUUGCUAAUAGUCGCAAG [Fam3.1 aminoacylation ribozyme variant]	6.56	1.32	1.29	1.23	1.25	2.64
AAGGUUGCUAAUAGUCGCAUG [Fam3.1 aminoacylation ribozyme variant]	2.16	1.66	1.34	1.34	1.45	2
AAGGUUGCUAUUAGUCGCAAG [Fam3.1 aminoacylation ribozyme variant]	2.24	1.66	1.3	1.18	1.56	1.53
AAGGUUGUUAAUAGUCGCAAG [Fam3.1 aminoacylation ribozyme variant]	2.51	1.86	1.72	1.39	1.69	1.53
AAGUAUGCAAAUAGUCGCAAG [Fam3.1 aminoacylation ribozyme variant]	1.55	1.17	1.06	1.05	1.02	1.76
AAGUAUGCUAACAGUCGCAAG [Fam3.1 aminoacylation ribozyme variant]	13.3	1.82	1.42	1.54	1.45	4.66
AAGUCUGCCAAUAGUCGCAAG [Fam3.1 aminoacylation ribozyme variant]	1.53	1.18	1.84	1.06	0.879	1.28
AAGUCUGCUAAUAGUCGCAUG [Fam3.1 aminoacylation ribozyme variant]	2.06	0.998	1.72	1.27	1.89	1.91
AAGUCUGCUAAUGGUCGCAAG [Fam3.1 aminoacylation ribozyme variant]	5.79	0.882	1.3	0.865	0.959	0.919
AAGUGCGCUAAUAGUCGCAAG [Fam3.1 aminoacylation ribozyme variant]	3.73	1.84	1.19	1.8	1.38	4.08
AAGUGUGCUAAUAGCCGCAAG [Fam3.1 aminoacylation ribozyme variant]	3.94	1.81	1.49	1.48	1.2	2.61
AAGUGUGCUAAUAGUCGCAUG [Fam3.1 aminoacylation ribozyme variant]	1.09	1.38	1.44	1.3	1.86	1.98
AAGUGUGCUAAUAGUCGCUAG [Fam3.1 aminoacylation ribozyme variant]	0.823	1.23	0.976	0.925	0.893	0.788
AAGUGUGGUAAUAGUCGCAAG [Fam3.1 aminoacylation ribozyme variant]	1.5	1.43	1.15	1.16	1.48	1.15
AAGUUAGCUAAUAGUCCCAAG [Fam3.1 aminoacylation ribozyme variant]	2.79	1.15	1.18	0.967	1	1.1
AAGUUAGCUAAUAGUGGCAAG [Fam3.1 aminoacylation ribozyme variant]	0.615	0.718	0.809	0.648	0.554	0.543
AAGUUAGCUAAUAGUUGCAAG [Fam3.1 aminoacylation ribozyme variant]	1.8	1.47	1.45	1.33	1.59	2.07
AAGUUAGCUAAUAUUCGCAAG [Fam3.1 aminoacylation ribozyme variant]	2.26	1.78	1.43	1.39	1.33	1.59

Sequence	self-aminoacylation (biotinyl-Phe-oxazolone)	self-aminoacylation (biotinyl-Ile-oxazolone)	self-aminoacylation (biotinyl-Met-oxazolone)	self-aminoacylation (biotinyl-Val-oxazolone)	self-aminoacylation (biotinyl-Leu-oxazolone)	self-aminoacylation (biotinyl-Trp-oxazolone)
AAGUUCGCUAAUAGUCGCCAG [Fam3.1 aminoacylation ribozyme variant]	11.6	2.33	1.84	1.81	1.79	2.27
AAGUUCGCUAAUAGUCGCGAG [Fam3.1 aminoacylation ribozyme variant]	15.2	3.31	2.09	2.51	2.18	4
AAGUUCGCUAAUAGUUGCAAG [Fam3.1 aminoacylation ribozyme variant]	1.71	1.52	1.47	1.22	1.33	1.12
AAGUUCGCUAUUAGUCGCAAG [Fam3.1 aminoacylation ribozyme variant]	2.21	2	1.82	1.5	2.14	1.44
AAGUUGGCUAAUAGGCGCAAG [Fam3.1 aminoacylation ribozyme variant]	1.49	1.71	1.14	1.23	1.41	1.19
AAGUUGGCUAAUAGUCGCAUG [Fam3.1 aminoacylation ribozyme variant]	1.69	1.77	1.88	1.51	2.19	2
AAGUUGGCUAAUAGUCGUAAG [Fam3.1 aminoacylation ribozyme variant]	10.7	1.49	1.33	1.37	1.14	4.1
AAGUUGGCUACUAGUCGCAAG [Fam3.1 aminoacylation ribozyme variant]	1.58	1.65	1.2	1.76	1.86	1.42
AAGUUGGCUAGUAGUCGCAAG [Fam3.1 aminoacylation ribozyme variant]	2.98	1.65	1.21	1.65	1.65	1.51
AAGUUGGCUAUUAGUCGCAAG [Fam3.1 aminoacylation ribozyme variant]	1.55	2	1.36	1.49	1.62	1.85
AAGUUUACUAAUAGUAGCAAG [Fam3.1 aminoacylation ribozyme variant]	1.97	1.54	1.28	1.22	1.17	0.98
AAGUUUACUAAUAGUCGCAGG [Fam3.1 aminoacylation ribozyme variant]	2.36	1.55	1.25	1.34	1.6	1.61
AAGUUUACUAAUAGUCGCAUG [Fam3.1 aminoacylation ribozyme variant]	2.25	1.49	1.25	1.13	1.34	1.68
AAGUUUACUAAUAGUCGCCAG [Fam3.1 aminoacylation ribozyme variant]	1.61	1.42	1.23	1.21	1.24	1.31
AAGUUUACUAAUAGUCUCAAG [Fam3.1 aminoacylation ribozyme variant]	2.39	1.15	0.844	1.29	1.11	1.23
AAGUUUACUAAUCGUCGCAAG [Fam3.1 aminoacylation ribozyme variant]	2.66	1.64	1.13	1.46	1.55	1.35
AAGUUUACUAAUGGUCGCAAG [Fam3.1 aminoacylation ribozyme variant]	1.64	1.59	1.28	1.1	1.47	2.06
AAGUUUCCUAAUAGUCGCAAU [Fam3.1 aminoacylation ribozyme variant]	4.15	2.34	1.79	1.88	2.04	2.47
AAGUUUCCUAAUAGUCGCAUG [Fam3.1 aminoacylation ribozyme variant]	2.38	2.28	1.89	1.9	1.94	2.11
AAGUUUCCUAAUAGUGGCAAG [Fam3.1 aminoacylation ribozyme variant]	0.605	0.838	0.752	0.902	0.642	0.634
AAGUUUCCUCAUAGUCGCAAG [Fam3.1 aminoacylation ribozyme variant]	3.38	2.1	1.39	2.08	2	1.84
AAGUUUCCUGAUAGUCGCAAG [Fam3.1 aminoacylation ribozyme variant]	3.33	1.67	1.69	1.54	1.69	1.49
AAGUUUGAUAAUAGGCGCAAG [Fam3.1 aminoacylation ribozyme variant]	0.836	0.704	0.523	0.551	0.59	0.74
AAGUUUGAUAAUAGUCGAAAG [Fam3.1 aminoacylation ribozyme variant]	1.03	0.705	0.568	0.592	0.543	0.785
AAGUUUGCAAACAGUCGCAAG [Fam3.1 aminoacylation ribozyme variant]	1.47	0.775	0.798	0.735	0.93	0.595
